# This sample holds only a part of the variants without activity.
# What was measured:
# biotinyl-Val-oxazolone = assay: self-aminoacylation, catalytic enhancement (BVO) (fold over background); higher = more active; k-Seq, kA / k0A0; sequences stand for … in GGGAAUGGAUCCACAUCUACGAAUUC…UUCACUGCAGACUUGACGAAGCUG
# Summary of the method: (§1)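 The uncatalyzed rate is the low-activity peak of a bimodal Gaussian fit, and catalytic enhancement is median kA divided by it. The kA values came from pseudo-first-order fits, with 1000 bootstraps, of per-sequence fraction reacted measured by streptavidin capture, triplicate qPCR and Illumina sequencing. Mutagenized RNA pools with a 21-nt variable region (0.43 μM) were reacted with each biotinyl-aminoacyl-oxazolone at 2–1250 μM in 50 μL HEPES/NaCl/KCl/MgCl2/CaCl2 buffer with 5% acetonitrile, pH 6.9–7.0, for 90 minutes at room temperature.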
# biotinyl-Trp-oxazolone = assay: self-aminoacylation, catalytic enhancement (BWO) (fold over background); higher = more active; k-Seq, kA / k0A0; sequences stand for … in GGGAAUGGAUCCACAUCUACGAAUUC…UUCACUGCAGACUUGACGAAGCUG
# Summary of the method: as §1
# biotinyl-Met-oxazolone = assay: self-aminoacylation, catalytic enhancement (BMO) (fold over background); higher = more active; k-Seq, kA / k0A0; sequences stand for … in GGGAAUGGAUCCACAUCUACGAAUUC…UUCACUGCAGACUUGACGAAGCUG
# Summary of the method: as §1
# biotinyl-Leu-oxazolone = assay: self-aminoacylation, catalytic enhancement (BLO) (fold over background); higher = more active; k-Seq, kA / k0A0; sequences stand for … in GGGAAUGGAUCCACAUCUACGAAUUC…UUCACUGCAGACUUGACGAAGCUG
# Summary of the method: as §1
# biotinyl-Ile-oxazolone = assay: self-aminoacylation, catalytic enhancement (BIO) (fold over background); higher = more active; k-Seq, kA / k0A0; sequences stand for … in GGGAAUGGAUCCACAUCUACGAAUUC…UUCACUGCAGACUUGACGAAGCUG
# Summary of the method: as §1
# biotinyl-Phe-oxazolone = assay: self-aminoacylation, catalytic enhancement (BFO) (fold over background); higher = more active; k-Seq, kA / k0A0; sequences stand for … in GGGAAUGGAUCCACAUCUACGAAUUC…UUCACUGCAGACUUGACGAAGCUG
# Summary of the method: as §1
Sequence,self-aminoacylation (biotinyl-Val-oxazolone),self-aminoacylation (biotinyl-Trp-oxazolone),self-aminoacylation (biotinyl-Met-oxazolone),self-aminoacylation (biotinyl-Leu-oxazolone),self-aminoacylation (biotinyl-Ile-oxazolone),self-aminoacylation (biotinyl-Phe-oxazolone)
AUGACCCAGGUCAUCGAGUGA [Fam2.1 aminoacylation ribozyme variant],2.5,5.92,4.72,5.25,2.5,17.9
AAGUUUGCAAAGAGUCGCAAG [Fam3.1 aminoacylation ribozyme variant],0.832,1.54,0.929,0.949,0.841,1.41
CCACACUUCUAGCAAUCGGUG [Fam1B.1 aminoacylation ribozyme variant],2.62,3.09,3.47,4.64,2.65,19.8
CCACACUUCAAGAAAUCGGGC [Fam1B.1 aminoacylation ribozyme variant],1.69,2.16,1.82,1.64,2.14,1.14
CCACACUGCAAGCACUCGGUC [Fam1B.1 aminoacylation ribozyme variant],1.66,1.47,1.54,1.39,1.63,2.57
AUUACCCUGAUCAUCGGGUGA [Fam2.1 aminoacylation ribozyme variant],5.38,10.7,9.51,9.62,5.24,67.3
AAGUUUGCUUAUUGUCGCAAG [Fam3.1 aminoacylation ribozyme variant],0.713,0.97,0.641,0.686,0.771,0.903
CUACUUGAAACUAUCGGUCUG [Fam1A.1 aminoacylation ribozyme variant],0.975,0.685,0.986,0.941,1.03,0.599
AUUACCCUCGUCAGCGAGUGA [Fam2.1 aminoacylation ribozyme variant],2.58,4.57,3.5,4.33,2.39,9.66
CUACUUUAAACGAUCGGUCUG [Fam1A.1 aminoacylation ribozyme variant],0.844,0.759,0.885,0.863,0.808,0.589
AACUUUGCUUAUAGUCGCAAG [Fam3.1 aminoacylation ribozyme variant],2.2,2.98,3.18,2.98,2.58,3.75
AUGACGCUGGUCAUCGAGUGA [Fam2.1 aminoacylation ribozyme variant],3.4,7.12,6.65,5.8,3.6,36.8
AUUACCCUAGUCAGCGAGUGA [Fam2.1 aminoacylation ribozyme variant],3.38,6.79,5.1,5.18,3.38,23.4
AUCACUCUGGUCAUCGAGUGA [Fam2.1 aminoacylation ribozyme variant],2.9,4.03,3.12,3.85,3.2,13.9
AUUCACUUAGGACAUCGGGUG [Fam2.2 aminoacylation ribozyme variant],2.33,2.78,3.21,3.44,2.33,14.1
AAGUUUGCUAAAAGUCACAAG [Fam3.1 aminoacylation ribozyme variant],1.07,2,0.971,0.919,1.35,3.25
AUACACCUAGGUCAUCGGGUG [Fam2.2 aminoacylation ribozyme variant],2.96,4.29,3.88,3.88,2.93,19.8
AUGCACCUAAGUCAUCGGGUG [Fam2.2 aminoacylation ribozyme variant],4.84,8.67,8.76,10.5,5.66,58.2
CUACACUUCUAGCAAUCGGUC [Fam1B.1 aminoacylation ribozyme variant],0.635,0.565,0.572,0.669,0.706,0.693
CAACUUCAAACAAACGGUCUG [Fam1A.1 aminoacylation ribozyme variant],0.946,1.04,0.945,0.995,1.07,0.948
AUUCACCUAGGUCUUCGGGUA [Fam2.2 aminoacylation ribozyme variant],3.6,3.79,3.75,3.22,3.31,17.4
AUUACCCUCGUCAUCGAGUGA [Fam2.1 aminoacylation ribozyme variant],2.07,3.22,2.98,3.09,2.08,8.82
AUUACACUGGUCAUCGAGUGU [Fam2.1 aminoacylation ribozyme variant],1.66,3.07,2.61,2.47,1.73,2.05
AAGACCCUGGUCAUCGAGUGA [Fam2.1 aminoacylation ribozyme variant],4.66,9.36,9.05,10.2,4.58,21.6
AGUACCCUUGUCAUCGAGUGA [Fam2.1 aminoacylation ribozyme variant],3.48,6.7,5.76,6.28,3.06,18.4
AAUCACCUAGGUCAUUGGGUG [Fam2.2 aminoacylation ribozyme variant],2.65,4.15,2.74,3.6,2.94,13.1

Sequence,self-aminoacylation (biotinyl-Val-oxazolone),self-aminoacylation (biotinyl-Trp-oxazolone),self-aminoacylation (biotinyl-Met-oxazolone),self-aminoacylation (biotinyl-Leu-oxazolone),self-aminoacylation (biotinyl-Ile-oxazolone),self-aminoacylation (biotinyl-Phe-oxazolone)
GUUCACCUAGUUCAUCGGGUG [Fam2.2 aminoacylation ribozyme variant],2.9,4.15,2.66,2.37,2.79,15.4
AAGUUUGCUUAUAGUCGCAAG [Fam3.1 aminoacylation ribozyme variant],0.862,0.847,0.801,0.768,0.849,1.13
AUUACCCCUGUCAUCGAGUGA [Fam2.1 aminoacylation ribozyme variant],3.14,7.28,4.96,5.42,3.62,28.2
CAACACUUCAAGCAAUGGGUC [Fam1B.1 aminoacylation ribozyme variant],0.664,0.833,0.834,0.882,0.858,0.677
AUUUACCUAGGUCAUCCGGUG [Fam2.2 aminoacylation ribozyme variant],3.81,4.6,4.7,7.4,3.68,41.8
AUUACCCUGGUUAGCGAGUGA [Fam2.1 aminoacylation ribozyme variant],2.1,5.27,4.21,4.28,2.2,22.1
AAUAUCCUGGUCAUCGAGUGA [Fam2.1 aminoacylation ribozyme variant],4.34,10.1,8.66,8.92,4.6,26.2
AAGUGUGCGAAUAGUCGCAAG [Fam3.1 aminoacylation ribozyme variant],1.82,1.38,1.79,1.76,1.72,2.28
CUACAACAAACAAUCGGUCUG [Fam1A.1 aminoacylation ribozyme variant],0.642,0.491,0.496,0.743,0.646,0.946
CCACUUCAGACAAUCGGUCUG [Fam1A.1 aminoacylation ribozyme variant],1.65,1.71,1.66,1.33,1.62,1.67
UUUCACCUAGGUCAUCGGGCG [Fam2.2 aminoacylation ribozyme variant],3.19,4.57,4.77,5.21,3.06,4.77
AUUACCCUGGACAUCGAGUUA [Fam2.1 aminoacylation ribozyme variant],0.75,0.639,0.682,0.772,0.805,0.728
AUUCACCUAGGGCGUCGGGUG [Fam2.2 aminoacylation ribozyme variant],1.84,1.83,2.21,2.92,1.73,9.76
AAGUUUGCUACUAGUCUCAAG [Fam3.1 aminoacylation ribozyme variant],0.818,0.988,0.914,0.77,0.827,1.11
CUGCUUCAAACAAUCAGUCUG [Fam1A.1 aminoacylation ribozyme variant],0.77,12.5,0.723,1.21,0.738,40.5
UUUACCCUGGUCAUCGUGUGA [Fam2.1 aminoacylation ribozyme variant],2.06,3.71,2.98,3.11,1.66,15.3
CCACACUUCAAGCAGGCGGUC [Fam1B.1 aminoacylation ribozyme variant],1.54,1.77,1.24,1.07,1.86,0.771
CUACUUCGGACAAUCGGUCUG [Fam1A.1 aminoacylation ribozyme variant],0.923,0.75,0.928,0.867,0.815,0.631
AUUCACAUAGGUCAUGGGGUG [Fam2.2 aminoacylation ribozyme variant],4.12,6.97,7.28,9.35,4.56,46.7
CUUCGCCUAGGUCAUCGGGUG [Fam2.2 aminoacylation ribozyme variant],4.54,5.8,3.41,4.47,3.75,37.4
CUACUUCAAACAAUCGGUGUA [Fam1A.1 aminoacylation ribozyme variant],0.946,0.989,1.05,1.12,0.983,1.33
AUUCACCUAGGUGGUCGGGUG [Fam2.2 aminoacylation ribozyme variant],2.77,3.42,2.41,4.09,2.49,18.3
AUUACCCUGGUCUUCGAAUGA [Fam2.1 aminoacylation ribozyme variant],0.728,0.642,0.746,0.694,0.649,0.408
CCACACUUCCAGCAAUGGGUC [Fam1B.1 aminoacylation ribozyme variant],1.38,0.884,0.956,0.88,1.34,1.22
AAUAUUGCUAAUAGUCGCAAG [Fam3.1 aminoacylation ribozyme variant],1.76,1.95,1.68,1.7,1.86,2.4

# From the supplement of paper PMC9233669
